Assay results taken from US20150024411A1.

Experiments:
[1] = target: human CD4 on CD4+ cells of PBMC or whole blood (human) (UniProt P01730); test: Pipette tip cell affinity chromatography on Strep-Tactin agarose functionalized with the m13B8.2 Fab, human PBMC; starting sample 52,3% CD4+ (a) [b]
[2] = target: human CD4 on CD4+ cells of PBMC or whole blood (human) (UniProt P01730); test: Pipette tip cell affinity chromatography on Strep-Tactin agarose functionalized with the m13B8.2 Fab, human PBMC; starting sample 52,3% CD4+ (a) [c]
[3] = target: human CD4 on CD4+ cells of PBMC or whole blood (human) (UniProt P01730); test: Pipette tip cell affinity chromatography on Strep-Tactin agarose functionalized with the m13B8.2 Fab, human whole blood; starting sample 1,20% CD4+ (a) [b]
[4] = target: human CD4 on CD4+ cells of PBMC or whole blood (human) (UniProt P01730); test: Pipette tip cell affinity chromatography on Strep-Tactin agarose functionalized with the m13B8.2 Fab, human whole blood; starting sample 1,20% CD4+ (a) [c]
[5] = target: human CD8 on CD8+ T cells of PBMC or whole blood (human) (UniProt P01732); test: cell affinity chromatography: Fab on Strep-Tactin Sephadex-50, human PBMC, flow cytometry of start and flow-through
Chain of UniProt P01732 (P01732 22-235): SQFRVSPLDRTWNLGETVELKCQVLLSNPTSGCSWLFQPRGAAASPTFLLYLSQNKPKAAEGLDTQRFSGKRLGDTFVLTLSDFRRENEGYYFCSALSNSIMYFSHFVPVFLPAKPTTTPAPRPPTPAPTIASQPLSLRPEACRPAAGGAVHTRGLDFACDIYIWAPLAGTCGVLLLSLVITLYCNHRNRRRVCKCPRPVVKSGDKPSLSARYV

[6] = target: human CD8 on CD8+ T cells of PBMC or whole blood (human) (UniProt P01732); test: cell affinity chromatography: PBMC pre-incubated with Fab, Superflow Strep-Tactin column, FACS of start and wash fractions
[7] = target: human CD8 on CD8+ T cells of PBMC or whole blood (human) (UniProt P01732); test: Cell affinity chromatography on Strep-Tactin agarose functionalized with the anti-CD8 Fab, human PBMC; starting sample 24,1% CD8+ (a) [b]
[8] = target: human CD8 on CD8+ T cells of PBMC or whole blood (human) (UniProt P01732); test: Cell affinity chromatography on Strep-Tactin agarose functionalized with the anti-CD8 Fab, human PBMC; starting sample 24,1% CD8+ (a) [c]
[9] = target: human CD8 on CD8+ T cells of PBMC or whole blood (human) (UniProt P01732); test: Cell affinity chromatography on Strep-Tactin agarose functionalized with the anti-CD8 Fab, human whole blood; starting sample 0,041% CD8+ (a) [b]
[10] = target: human CD8 on CD8+ T cells of PBMC or whole blood (human) (UniProt P01732); test: Cell affinity chromatography on Strep-Tactin agarose functionalized with the anti-CD8 Fab, human whole blood; starting sample 0,041% CD8+ (a) [c]
[11] = target: human CD8 on CD8+ T cells of PBMC or whole blood (human) (UniProt P01732); test: Flow cytometry of PBMC fractions from a Sephadex G50/Strep-Tactin column loaded with the CD8 Fab; the same marker reads 28 before selection (diagram A)
[12] = target: murine CD4 on splenocytes (murine) (UniProt P06332); test: Pipette tip cell affinity chromatography on Strep-Tactin agarose functionalized with the GK1.5 Fab, murine splenocytes; starting sample 21,7% CD4+ (a) [b]
Chain of UniProt P06332 (P06332 27-457): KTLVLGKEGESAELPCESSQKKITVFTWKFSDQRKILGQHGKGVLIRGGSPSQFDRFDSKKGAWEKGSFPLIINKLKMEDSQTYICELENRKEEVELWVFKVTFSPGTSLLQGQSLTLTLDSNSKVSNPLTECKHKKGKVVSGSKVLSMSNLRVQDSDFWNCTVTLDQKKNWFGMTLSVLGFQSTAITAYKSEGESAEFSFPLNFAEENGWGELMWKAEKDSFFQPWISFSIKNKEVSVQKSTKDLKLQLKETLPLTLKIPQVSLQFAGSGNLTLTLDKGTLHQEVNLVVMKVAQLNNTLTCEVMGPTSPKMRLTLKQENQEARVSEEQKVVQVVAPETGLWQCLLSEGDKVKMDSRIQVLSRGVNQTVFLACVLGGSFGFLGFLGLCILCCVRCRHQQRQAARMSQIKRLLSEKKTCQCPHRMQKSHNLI

[13] = target: murine CD4 on splenocytes (murine) (UniProt P06332); test: Pipette tip cell affinity chromatography on Strep-Tactin agarose functionalized with the GK1.5 Fab, murine splenocytes; starting sample 21,7% CD4+ (a) [c]
[14] = target: murine CD4 on splenocytes (murine) (UniProt P06332); test: Pipette tip cell affinity chromatography on Strep-Tactin agarose functionalized with the GK1.5 Fab, murine splenocytes; starting sample 19,6% CD3+CD4+ (a) [b]
[15] = target: murine CD4 on splenocytes (murine) (UniProt P06332); test: Pipette tip cell affinity chromatography on Strep-Tactin agarose functionalized with the GK1.5 Fab, murine splenocytes; starting sample 19,6% CD3+CD4+ (a) [c]

mutant Fab fragment m13B8.2 (variable domains of the CD4 binding murine antibody 13B8.2 with light chain His91Ala and heavy chain Arg53Ala, human CH1 gamma1 and human kappa constant domains, two streptavidin binding modules at the C-terminus of the heavy chain)
% CD4+ cells in the CD4-negative wash fraction [1]: 5.88% | % CD4+ cells in the biotin eluate fraction [2]: 99.4% | % CD4+ cells in the CD4-negative wash fraction [3]: 0.144% | % CD4+ cells in the biotin eluate fraction [4]: 70.4%

CD8 binding Fab fragment, heavy chain carboxy-terminally fused with a sequential arrangement of two streptavidin binding modules (IBA GmbH, catalogue number 6-8003)
percent of PBMC that are CD8+ T-cells bound to the column [5]: 12.1% | percent of the CD8+ T-cells bound to the column [5]: 66% | percent of CD8+ cells retarded on the column [6]: 77.8% | % CD8+ cells in the CD8-negative wash fraction [7]: 4.83% | % CD8+ cells in the biotin eluate fraction [8]: 88.2% | % CD8+ cells in the CD8-negative wash fraction [9]: 0.005% | % CD8+ cells in the biotin eluate fraction [10]: 79.8% | % cells in the CD8-positive marker of the CD8 histogram, 1. elution fraction immediately with D-Biotin [11]: 67% | % cells in the CD8-positive marker of the CD8 histogram, 2. elution fraction after D-Biotin and subsequent washing [11]: 76% | % cells in the CD8-positive marker of the CD8 histogram, wash through fraction [11]: 10%

anti-CD4 Fab fragment with the wild-type variable domains of the CD4 binding antibody GK1.5 and two streptavidin binding modules at the C-terminus of the heavy chain
% CD4+ cells in the CD4-negative wash fraction [12]: 2.78% | % CD4+ cells in the biotin eluate fraction [13]: 84.7% | % CD3+CD4+ cells in the CD4-negative wash fraction [14]: 0.977% | % CD3+CD4+ cells in the biotin eluate fraction [15]: 80.8%
